In the supplement of paper PMC11316812:
± gives the standard deviation of the averaged measurements.

Experiments:
hTERT-HMEC = assay: percentage of EdU-negative (G0-arrested) nuclei per well, 72 h; higher = more G0 arrest; settings: reference: sequence is the full UniProt precursor, the tested protein was the secreted form or ectodomain
MCF7 = assay: as above; settings: reference: sequence is the full UniProt precursor, the tested protein was the secreted form or ectodomain
[1] = protein concentration 0.0225 µM
[2] = protein concentration 0.03123 µM
[3] = protein concentration 0.3123 µM
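Note: secreted proteins added to cultured cells, EdU pulse at the end, nuclei found by Hoechst imaging, EdU status from nuclear versus surrounding ring intensity ratio, PBS as neutral control.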

Sequence | percentage of EdU-negative (hTERT-HMEC; [1]) [%] | percentage of EdU-negative (hTERT-HMEC; protein concentration 0.225 µM) [%] | percentage of EdU-negative (MCF7; [1]) [%] | percentage of EdU-negative (MCF7; protein concentration 0.225 µM) [%] | percentage of EdU-negative (hTERT-HMEC; [2]) [%] | percentage of EdU-negative (hTERT-HMEC; [3]) [%] | percentage of EdU-negative (MCF7; [2]) [%] | percentage of EdU-negative (MCF7; [3]) [%]
MWTSGRMSNAKNWLGLGMSLYFWGLMDLTTTVLSDTPTPQGELEALLSDKPQSHQRTKRSWVWNQFFVLEEYTGTDPLYVGKLHSDMDRGDGSIKYILSGEGAGIVFTIDDTTGDIHAIQRLDREERAQYTLRAQALDRRTGRPMEPESEFIIKIQDINDNEPKFLDGPYVATVPEMSPVGTSVIQVTATDADDPTYGNSARVVYSILQGQPYFSVDSKTGVIRTALMNMDREAKEYYEVIIQAKDMGGQLGGLAGTTTVNITLSDVNDNPPRFPQKHYQMSVLESAPISSTVGRVFAKDLDEGINAEMKYTIVDGDGADAFDISTDPNFQVGIITVKKPLSFESKKSYTLKVEGANPHLEMRFLNLGPFQDTTTVHISVEDVDEPPVFEPGFYFVEVPEDVAIGTTIQIISAKDPDVTNNSIRYSIDRSSDPGRFFYVDITTGALMTARPLDREEFSWHNITVLAMEMNNPSQVGSVPVTIKVLDVNDNAPEFPRFYEAFVCENAKAGQLIQTVSAVDQDDPRNGQHFYYSLAPEAANNPNFTIRDNQDNTARILTRRSGFRQQEQSVFHLPILIADSGQPVLSSTGTLTIQVCSCDDDGHVMSCSPEAYMLPVSLSRGALIAILACIFVLLVLVLLILSMRRHRKQPYIIDDEENIHENIVRYDDEGGGEEDTEAFDIAAMWNPREAQAGAAPKTRQDMLPEIESLSRYVPQTCAVNSTVHSYVLAKLYEADMDLWAPPFDSLQTYMFEGDGSVAGSLSSLQSATSDSEQSFDFLTDWGPRFRKLAELYGASEGPAPLW [Q9HBT6] | 3.9 ± 0.76 | 50.2 ± 7 | 28 ± 0.47 | 36 ± 0.13 | – | – | – | –
MWVLGIAATFCGLFLLPGFALQIQCYQCEEFQLNNDCSSPEFIVNCTVNVQDMCQKEVMEQSAGIMYRKSCASSAACLIASAGYQSFCSPGKLNSVCISCCNTPLCNGPRPKKRGSSASALRPGLRTTILFLKLALFSAHC [Q8N2G4] | 5.36 ± 1.2 | 4.964 ± 0.041 | 25.13 ± 0.22 | 25.1 ± 1.1 | – | – | – | –
MWVPVVFLTLSVTWIGAAPLILSRIVGGWECEKHSQPWQVLVASRGRAVCGGVLVHPQWVLTAAHCIRNKSVILLGRHSLFHPEDTGQVFQVSHSFPHPLYDMSLLKNRFLRPGDDSSHDLMLLRLSEPAELTDAVKVMDLPTQEPALGTTCYASGWGSIEPEEFLTPKKLQCVDLHVISNDVCAQVHPQKVTKFMLCAGRWTGGKSTCSGDSGGPLVCNGVLQGITSWGSEPCALPERPSLYTKVVHYRKWIKDTIVANP | 4.97 ± 0.14 | 5.29 ± 0.6 | 26.3 ± 1.2 | 25 ± 2 | 4.99 ± 0.4 | 6.47 ± 0.73 | 27.3 ± 0.96 | 26.3 ± 0.32
MWWRVLSLLAWFPLQEASLTNHTETITVEEGQTLTLKCVTSLRKNSSLQWLTPSGFTIFLNEYPALKNSKYQLLHHSANQLSITVPNVTLQDEGVYKCLHYSDSVSTKEVKVIVLATPFKPILEASVIRKQNGEEHVVLMCSTMRSKPPPQITWLLGNSMEVSGGTLHEFETDGKKCNTTSTLIIHTYGKNSTVDCIIRHRGLQGRKLVAPFRFEDLVTDEETASDALERNSLSSQDPQQPTSTVSVTEDSSTSEIDKEEKEQTTQDPDLTTEANPQYLGLARKKSGILLLTLVSFLIFILFIIVQLFIMKLRKAHVIWKKENEVSEHTLESYRSRSNNEETSSEEKNGQSSHPMRCMNYITKLYSEAKTKRKENVQHSKLEEKHIQVPESIV | 4.57 ± 0.2 | 4.66 ± 0.87 | 25.3 ± 1.9 | 25.7 ± 2.4 | – | – | – | –
